Laboratory results reported in the DeepSol protein solubility set.

Assay: soluble on expression in E. coli; label from the status in PepcDB or PDB records

Question: For “MGSDKIHHHHHHMKIILTTSMSGLGGTETATVRLGRLLKRHGHDIILASSDGPFVGEAQASGIRWQPVDFYRGGLAGYLKSTFAYARMLRREQPDIIDCQMARVVPACALAAKIVSPKTKIICHSHGLDAATYPKTAKLFDKLGAYIIGNCKHEREKLIRHGFPAGRIAYAYNTPPEFHFRKTEKECAVLGTLSRLDTVRAVHLMLDILKKMVGRNIPVRLNMAGIGEEMDNLKAQAKRLGIEDKVTFLGGVRDLTGYFKEVDILVNTPHCVGDHGAGVGNNILEAGLYDTPVVTYNMAGISEMVITGQTGYCIPFGDDEAFIEAVDTLIKHPELRSQMGKALHKHVETLCSDDEIYRTTMAAYEM”, which “soluble on expression in E. coli” value is on record?
Answer: not soluble

Question: Which “soluble on expression in E. coli” value does the source give for “MHKNGKFIPLLALGFTFFLSGCDYFADKHLVEEMKEQQKEQETKINLLEKQQKEQEAKINLLEKQQATIINTTKKVTEVVGRVERKQRLFDYTELDPSQTHYFIINNGNIGLAGRILSIEPIDNGSVIHLDLVNLLSIPVSNLAFNMTWGTKKPSEAKDLPRWKQLLLNTKMDSTIELLPGAWTNVTLTLKGVSPNNLKYLKIGIDMENVIFDSIQPINDTKKKPKK” here?
Answer: not soluble

Question: Which “soluble on expression in E. coli” value does the source give for “MSLIHPHIADALKVPDLVRLNDDLVLIRFESMKIYSALAAVRHLLERGTIRPGQTLIDSSSGIYAYALALACHRYGMRCHVVASTTVDTTTRAQLEILGATVEQVRPSRNLKLDQELRVRRVREILADHPDWHWMRQYHDDVHYLGYQEVADRITTAFPSTPLTVVGGVGSGASTGGLVERLRATDPSVRLVGVQPFGSVTFGSQAHHDPEAIIAGIGSSIVFDNVRHHLYDAVHWLDFTHAMSGTIALLRERAVFAGLSTGAGYLAATYEARRHPDRLHLVIGADTGHRYVERVFARHTEALDPAPLKPVEVSAPEEMSMPWSRMAWRRTAEGHHHHHH” here?
Answer: soluble

Question: Which “soluble on expression in E. coli” value does the source give for “MTNIFTPIEEALEAYKNGEFLIVMDDEDRENEGDLIMAAELITQEKMAFLVRYSSGYVCVPLSEERANQLELPPMLANRSDRHGTAYTITCDFAEGTTTGISAHDRALTTRSLANPNSKPQDFIKPGHILPLRAVPGLLKKRRGHTEAAVQLSTLAGLQPAGVICELVRDEDGLMMRLDDCIQFGKKHGIKIININQLVEYISK” here?
Answer: soluble

Question: For “MGSDKIHHHHHHMRRTDKKKTFGQQSSKVTQLADTLSQAISMKKFREGDSLPSINQLSAEYGVSRDTVFKAFLDLRERGLIDSTPGKGYYVTSQVTNVLLLLDQYTPFKEALYNSFVKHLPINYKVDLLFHQYNERLFNTIIRESVGKYNKYIVMNFDNEKFSMVLNKIHPTKLLLLDFGKFEKEKYSYICQDFDEAFYQALLMLKEKLRHYPQLVLLFSKNLKHPQSSKEYFTRFCEEQGFLCEIQEDIENLTVRKGVVYIAIKQQDVVKVVKQGRLEGLKCGKDFGLLAYNDIPSYEVIDEGITSLSIDWEMMGNEAANFVLNNVPIQKYLPTEVRLRKSL”, which “soluble on expression in E. coli” value is on record?
Answer: not soluble

Question: Which “soluble on expression in E. coli” value does the source give for “MGSDKIHHHHHHMRGEKNELLSWINNFVEVNNKAIDNSFEKFKSEPSNQYNLPFKNVSWYTLRKTLADNVEESKKARGCLYAVLDYNESELKELGLILNSNLHSIKKIANKIMQNAGIEFQFRFEAIMRLLLDKKNNLMLLNIPDLKRIKICLENFLSLRTTFRELVKQLLNDYNSNKESIKSENIKLGDYLNKAFSDIVLSMDKNPINLEKEIRNIIVI” here?
Answer: not soluble

Question: For “GMIKIAIVGFGTVGQGVAELLIRKREEIEKAIGEFKVTAVADSKSSISGDFSLVEALRMKRETGMLRDDAKAIEVVRSADYDVLIEASVTRVDGGEGVNYIREALKRGKHVVTSNKGPLVAEFHGLMSLAERNGVRLMYEATVGGAMPVVKLAKRYLALCEIESVKGIFNGTCNYILSRMEEERLPYEHILKEAQELGYAEADPSYDVEGIDAALKLVIIANTIGVKASYEDVEVTGITQITPEAFQVAAEKGYTIRLIAEVSREKLKVSPRLVPFHHPLAIKGTMNAAMFKTDTAGSIFVAGRGAGKEETASAILSDLYEIYAGPR”, which “soluble on expression in E. coli” value is on record?
Answer: soluble
